The subject of the data set is plasma derived alpha-1 antitrypsin (AAT).

Turning to recombinant active caspase-1, the “caspase-1 activity (in arbitrary units), colorimetric substrate, in vitro with recombinant active caspase-1” value is on record as “AAT has a direct inhibitory effect on caspase-1 activity in vitro”.

The values are drawn from patent US20130195859.
